Laboratory results as given in US20240117038A1 (Ablynx, published 2024).

Tests used:
human CX3CR1 V249I/T280M = biological target: T1, human CX3CR1 V249I/T280M (human, UniProt P49238 1-355); assay: flow cytometry on transiently transfected HEK293T cells, human CX3CR1 V249I/T280M
T1 construct: Transiently transfected in HEK293T cells (pcDNA3.1); also called huCX3CR1 variant V249I and T280M
T1 chain: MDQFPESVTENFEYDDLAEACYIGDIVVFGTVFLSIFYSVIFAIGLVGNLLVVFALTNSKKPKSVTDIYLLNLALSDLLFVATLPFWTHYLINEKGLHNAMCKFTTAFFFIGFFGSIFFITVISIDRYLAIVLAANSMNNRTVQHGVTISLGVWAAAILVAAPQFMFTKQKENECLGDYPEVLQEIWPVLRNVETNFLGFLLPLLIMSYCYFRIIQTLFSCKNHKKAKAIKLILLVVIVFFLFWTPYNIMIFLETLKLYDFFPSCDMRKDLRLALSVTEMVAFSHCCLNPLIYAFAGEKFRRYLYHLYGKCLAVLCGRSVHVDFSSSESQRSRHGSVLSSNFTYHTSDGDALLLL
Experimental: (§1) After washing, serial dilutions of multivalent ISVD construct (starting from 250 nM, 3-fold dilution, 11 points, diluted in assay buffer), were added and incubated for 4 hours at 4° C. Binding was performed in the presence of 30 uM HSA (Sigma-Aldrich, Cat. No. A8763). Plates were then washed 3 times and cells were incubated with an anti-VHH mouse antibody (3300-fold diluted in assay buffer) for 30 minutes at 4′° C. […] Plates were finally washed 3 times and cells were resuspended in PI (Miltenyi Biotec, Cat. No. 130-093-233, 1000-fold diluted in assay buffer). Cell suspensions were analyzed with iQue Screener PLUS (Intellicyt). EC50s were estimated by dose response modelling. Curves were fit using 4 parameter logistic regression in GraphPad (GraphPad Software Inc.). A purified anti-human CX3CR1 antibody [K0124E1] (BioLegend, Cat. No. 355701/355702) was used as positive control to detect CX3CR1 expression on the cell surface.
(§2) Two important SNPs are described in huCX3CR1, i.e. V2491 (Rs3732379) and T280M (Rs3732378), which might influence receptor activity and binding by the ISVD. […] Different combinations of these SNPs were introduced in human CX3CR1, and binding by 5 selected multivalent ISVD constructs was assessed with flow cytometry after transient transfection of the huCX3CR1 variants in HEK293T cells.
(§3) In short, the CX3CR1 constructs were cloned into pcDNA3.1 (ThermoFisher Scientific, Cat. No. V79020) and plasmid DNA was prepared from Escherichia coli TOP10 cells. HEK293T cells were seeded at a concentration of 1.5E06 cells per T75 flask and incubated overnight at 37° C. in DMEM medium (Gibco, Cat. No. 31966) supplemented with 10% FBS (Sigma. Cat. No. F7524). The medium was then replaced by Opti-MEM medium (Gibco, Cat. No. 31985). A mixture of 9 μg plasmid DNA, 27 μL Fugene 6 (Promega, Cat. No. E2691) in a final volume of 1 mL Opti-MEM was incubated for 15 minutes at room temperature and then added to the cells. After 3 hours incubation at 37° C., 10 mL of DMEM supplemented with 20% FBS was added, and incubation continued.

human CX3CR1 T280M = biological target: T2, human CX3CR1 T280M (human, UniProt P49238 1-355); assay: flow cytometry on transiently transfected HEK293T cells, human CX3CR1 T280M
T2 construct: Transiently transfected in HEK293T cells (pcDNA3.1); also called huCX3CR1 variant T280M (Rs3732378)
T2 sequence: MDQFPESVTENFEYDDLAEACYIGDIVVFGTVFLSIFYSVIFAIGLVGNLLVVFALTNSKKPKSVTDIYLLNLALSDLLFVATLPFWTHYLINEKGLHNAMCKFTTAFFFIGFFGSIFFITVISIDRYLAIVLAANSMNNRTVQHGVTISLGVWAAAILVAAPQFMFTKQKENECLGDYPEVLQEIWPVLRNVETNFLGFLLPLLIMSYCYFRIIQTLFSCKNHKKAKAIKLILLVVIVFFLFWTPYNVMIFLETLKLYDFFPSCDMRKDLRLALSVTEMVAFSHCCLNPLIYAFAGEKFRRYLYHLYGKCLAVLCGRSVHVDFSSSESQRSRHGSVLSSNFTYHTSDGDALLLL
Experimental: as §1, §2, §3

human CX3CR1 V249I = biological target: T3, human CX3CR1 V249I (human, UniProt P49238 1-355); assay: flow cytometry on transiently transfected HEK293T cells, human CX3CR1 V249I
T3 construct: Transiently transfected in HEK293T cells (pcDNA3.1); also called huCX3CR1 variant V249I (Rs3732379); printed V2491 in the text
T3 sequence: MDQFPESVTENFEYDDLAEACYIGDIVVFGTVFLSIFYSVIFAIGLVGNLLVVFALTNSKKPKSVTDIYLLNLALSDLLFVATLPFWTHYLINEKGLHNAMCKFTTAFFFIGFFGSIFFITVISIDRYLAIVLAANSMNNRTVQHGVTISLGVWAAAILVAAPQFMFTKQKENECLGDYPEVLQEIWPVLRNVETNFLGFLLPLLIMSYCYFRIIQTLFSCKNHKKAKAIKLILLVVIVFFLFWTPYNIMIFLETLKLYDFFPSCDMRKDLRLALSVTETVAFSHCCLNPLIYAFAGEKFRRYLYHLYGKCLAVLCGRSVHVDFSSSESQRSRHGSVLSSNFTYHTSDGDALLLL
Experimental: as §1, §2, §3

Binder | EC50 (human CX3CR1 V249I/T280M) | EC50 (human CX3CR1 T280M) | EC50 (human CX3CR1 V249I)
A041600025 (VHH, Trivalent ISVD construct (two anti-CX3CR1 ISVDs, one anti-albumin ISVD), C-terminal alanine included in the entry; also called 54A12_SO (E1D)-9GS-ALB23002-9GS-54A12_SO-A) DVQLVESGGGSVQPGGSLRLSCAASGSIFSSTAMAWYRQAPGKQRDLVAVISTVGITKYADSVKGRFTISRDNAKNTVYLQMNSLRPEDTALYYCTSDARRGWDTRYWGQGTLVTVSSGGGGSGGGSEVQLVESGGGVVQPGGSLRLSCAASGFTFRSFGMSWVRQAPGKGPEWVSSISGSGSDTLYADSVKGRFTISRDNSKNTLYLQMNSLRPEDTALYYCTIGGSLSRSSQGTLVTVSSGGGGSGGGSEVQLVESGGGSVQPGGSLRLSCAASGSIFSSTAMAWYRQAPGKQRDLVAVISTVGITKYADSVKGRFTISRDNAKNTVYLQMNSLRPEDTALYYCTSDARRGWDTRYWGQGTLVTVSSA | 170 pM | 160 pM | –
A041600034 (VHH, Trivalent ISVD construct; also called 54A12_SO (E1D)-9GS-ALB23002-9GS-66B02_SO-A) DVQLVESGGGSVQPGGSLRLSCAASGSIFSSTAMAWYRQAPGKQRDLVAVISTVGITKYADSVKGRFTISRDNAKNTVYLQMNSLRPEDTALYYCTSDARRGWDTRYWGQGTLVTVSSGGGGSGGGSEVQLVESGGGVVQPGGSLRLSCAASGFTFRSFGMSWVRQAPGKGPEWVSSISGSGSDTLYADSVKGRFTISRDNSKNTLYLQMNSLRPEDTALYYCTIGGSLSRSSQGTLVTVSSGGGGSGGGSEVQLVESGGGSVQPGGSLRLSCAASGSIFSSTAMAWYRQAPGKRRDLVAAINTVGVTKYADSVKGRFTISRDNAKNTVYLQMNSLRPEDTALYYCTSDPRRGWDTRYWGQGTLVTVSSA | 90 pM | 74 pM | 45 pM
A041600085 (VHH, also called 307-9GS-ALB23002-9GS-307 (D1E)-A) DVQLVESGGGLVQPGGSLRLSCAASGSIFSSTAMAWYRQAPGKRRDLVAAISTVGVTKYADSVKGRFTISRDNSKNTVYLQMNSLRPEDTAVYYCTSDPRRGWDTRYWGQGTLVTVSSGGGGSGGGSEVQLVESGGGVVQPGGSLRLSCAASGFTFRSFGMSWVRQAPGKGPEWVSSISGSGSDTLYADSVKGRFTISRDNSKNTLYLQMNSLRPEDTALYYCTIGGSLSRSSQGTLVTVSSGGGGSGGGSEVQLVESGGGLVQPGGSLRLSCAASGSIFSSTAMAWYRQAPGKRRDLVAAISTVGVTKYADSVKGRFTISRDNSKNTVYLQMNSLRPEDTAVYYCTSDPRRGWDTRYWGQGTLVTVSSA | – | 170 pM | 57 pM
A041600035 (VHH, Trivalent ISVD construct (two anti-CX3CR1 ISVDs, one anti-albumin ISVD), C-terminal alanine included in the entry; also called 54A12_SO (E1D)-9GS-54A12_SO-9GS-ALB23002-A) DVQLVESGGGSVQPGGSLRLSCAASGSIFSSTAMAWYRQAPGKQRDLVAVISTVGITKYADSVKGRFTISRDNAKNTVYLQMNSLRPEDTALYYCTSDARRGWDTRYWGQGTLVTVSSGGGGSGGGSEVQLVESGGGSVQPGGSLRLSCAASGSIFSSTAMAWYRQAPGKQRDLVAVISTVGITKYADSVKGRFTISRDNAKNTVYLQMNSLRPEDTALYYCTSDARRGWDTRYWGQGTLVTVSSGGGGSGGGSEVQLVESGGGVVQPGGSLRLSCAASGFTFRSFGMSWVRQAPGKGPEWVSSISGSGSDTLYADSVKGRFTISRDNSKNTLYLQMNSLRPEDTALYYCTIGGSLSRSSQGTLVTVSSA | 270 pM | 200 pM | 250 pM
A041600041 (VHH, Trivalent ISVD construct (two anti-CX3CR1 ISVDs, one anti-albumin ISVD), C-terminal alanine included in the entry; also called 54A12_SO (E1D)-9GS-66B02_SO-9GS-ALB23002-A) DVQLVESGGGSVQPGGSLRLSCAASGSIFSSTAMAWYRQAPGKQRDLVAVISTVGITKYADSVKGRFTISRDNAKNTVYLQMNSLRPEDTALYYCTSDARRGWDTRYWGQGTLVTVSSGGGGSGGGSEVQLVESGGGSVQPGGSLRLSCAASGSIFSSTAMAWYRQAPGKRRDLVAAINTVGVTKYADSVKGRFTISRDNAKNTVYLQMNSLRPEDTALYYCTSDPRRGWDTRYWGQGTLVTVSSGGGGSGGGSEVQLVESGGGVVQPGGSLRLSCAASGFTFRSFGMSWVRQAPGKGPEWVSSISGSGSDTLYADSVKGRFTISRDNSKNTLYLQMNSLRPEDTALYYCTIGGSLSRSSQGTLVTVSSA | – | 220 pM | 89 pM
